Experimental findings from US20010039016, “Use of expression profiling for identifying molecular markers useful for diagnosis of metastatic cancer” (published 2001) are described below.

In data set [1] the target is T1, Cdx2 (Mus musculus, UniProt P43241 P43241:1-311).
T1 sequence: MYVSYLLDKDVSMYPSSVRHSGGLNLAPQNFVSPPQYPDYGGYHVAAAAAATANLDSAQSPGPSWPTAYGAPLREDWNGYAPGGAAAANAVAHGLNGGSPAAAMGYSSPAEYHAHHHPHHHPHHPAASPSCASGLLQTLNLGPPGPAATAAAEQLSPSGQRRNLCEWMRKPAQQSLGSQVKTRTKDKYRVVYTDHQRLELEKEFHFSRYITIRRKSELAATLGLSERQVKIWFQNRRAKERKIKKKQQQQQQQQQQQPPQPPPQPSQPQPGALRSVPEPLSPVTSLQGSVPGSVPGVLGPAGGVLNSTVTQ
Briefly: EMSA; supershifted by anti-Cdx2, 10 mM Tris pH 7.5, 50 mM NaCl, 2.5 mM MgCl2, room temp. The following applies: tags: pRc/CMV-Cdx2, TNT Quick-coupled (Promega); label: 32P 5'-end. How it is done: (§1) Electromobility Shift Assay (EMSA). Protein-DNA binding reactions performed in the same buffer as the DNase I protection assay (4% glycerol, 10 mM Tris-HCl (pH 7.5) 50 mM NaCl, 2.5 mM MgCl₂ and 5 mM DTT) included […] of Poly(dI.dC)-Poly(dI.dC) (Amersham Pharmacia Biotech, Piscataway, N.J.) and 30 kcpm of probe. Reactions were initiated by the addition of nuclear extract and incubated for 30 min at room temp to produce protein complexes which were separated on a 6% non-denaturing, polyacrylamide (37.5:1) gel in 0.5× TBE running buffer. Gels were dried prior to visualization of radiolabelled complexes by autoradiography. In competition assays, unlabelled competitor was added to the reaction mixtures at concentrations ranging from 25-fold to 250-fold molar excess of the labeled probe prior to the addition of the nuclear extract. Supershift assays were performed by adding […] of murine Cdx2 antibody after an initial incubation period of 30 min; incubation was then continued for an additional 30 min. Transcribed and translated murine Cdx2 protein was generated in vitro using linearized pRc/CMV-Cdx2 expression vector as a template for the TNT-Quickcoupled Kit (Promega).
(§2) Cdx2 binds specifically to the FP1 probe. To determine whether FP1 is a binding site for Cdx2, labeled FP1 was incubated with in vitro transcribed and translated murine Cdx2. […]
(A gel shift assay detects complexes by their altered migration in electrophoresis.)

The target in data set [2] is T1, Cdx2. The experiment in a line: EMSA; no specific complex formed. The settings on record: tags: pRc/CMV-Cdx2, TNT Quick-coupled (Promega); label: 32P 5'-end. How it is done:
as §1, §2

Positions count from the first letter of the chain named.

B1: FP1 (dsDNA)
DNA 1: CAGCTAATCTCTCTGTTTATAGCTCTGACCTTTC
DNA 2: GAAAGGTCAGAGCTATAAACAGAGAGATTAGCTG
Take B1: in the data set with Cdx2 [1], the binding result is recorded as “binds”.

B2: FP1-CCC (dsDNA)
DNA 1: B1 DNA 1 with T16C, T17C, T18C
DNA 2: B1 DNA 2 with A17G, A18G, A19G
As for B2, the binding result in the data set with Cdx2 [2] is recorded as “no binding”.
